# Source: patent US20160237160A1 (Bayer, published 2016)
# Substitutions are numbered along the chain they refer to.
# B1: 18.3.3(TPP-2193) (antibody, mouse IgG2a, kappa, V domains shown)
# VH: EVKLGESGGGLVQPGGSMKLSCVASGFPFTKYWMNWVRQSPEKGLEWVAEIRLKSDNYATHYAESAKGRFTISRDDSRSSVYLQMNNLRAEDTAIYYCSPTYADTMDYWGQGTSVTVSS
# VL: DIVLTQSPASLAVSLGQRATISCKASQSVSTSTYSYMQWYQQRPGQSPKLLIKYASKLDSGVPARFSGSGSGTDFTLNIHPVEEEDTATYYCQHSWELPYTFGGGTRLEIKR
# notes: Murine IgG2a; variable domains from WO2009/020933 with constant region added
# B2: P3G5(TPP-2195) (antibody, mouse IgG2a, kappa, V domains shown)
# VH: QVQLQQSGPEVVRPGVSVKISCKGSGYTFTDYGIHWVKQSHAKSLEWIGVISTYNGYTNYNQKFKGKATMTVDKSSSTAYMELARLTSEDSAIYYCARAYYGNLYYAMDYWGQGTSVTVSS
# VL: DIVLTQSPASLAVSLGQRATISCRANKSVSTSSYSYMHWYQQKPGQPPKLLIKYASNLESGVPARFSGSGSGTDFILNIHPVEEEDAATYYCQHSRELPFTFGSGTKLEIKR
# notes: Murine IgG2a; variable domains from WO2009/140177 with constant region added
# B3: TPP-1853 (antibody, human IgG1, kappa, V domains shown)
# VH: EVQLLESGGGLVQPGGSLRLSCAASGFTFSPYPMMWVRQAPGKGLEWVSYISPSGGKTHYADSVKGRFTISRDNSKNTLYLQMNSLRAEDTAVYYCARGGDTYFDYFDYWGQGTLVTVSS
# VL: DIQMTQSPATLSASVGDRVTITCRASQSISSYLNWYQQKPGKAPKLLIYNASSLQSGVPSRFSGSGSGTDFTLTISSLQPEDFATYYCQQSYTSPGITFGPGTKVEIKR
# notes: Human IgG1
# B4: TPP-883 (antibody, human IgG1, kappa, V domains shown)
# VH: B3 VH with T102G
# VL: B3 VL with N50A, T93S
# notes: Human IgG1; parent antibody from the phage library
# B5: TPP-2148 (antibody, human IgG1, kappa, V domains shown)
# VH: B3 VH
# VL: B3 VL with N50Q, G96F
# notes: Human IgG1
# B6: TPP-2093 (antibody, human IgG1, kappa, V domains shown)
# VH: B3 VH with K57S
# VL: B3 VL with A9S, T10S, N50Q, G96F, P101Q
# notes: Human IgG1
# B7: TPP-1858 (antibody, human IgG1, kappa, V domains shown)
# VH: B3 VH
# VL: B3 VL with G96F
# notes: Human IgG1
# B8: TPP-1857 (antibody, human IgG1, kappa, V domains shown)
# VH: B3 VH
# VL: B3 VL with S31G
# notes: Human IgG1
# B9: TPP-1854 (antibody, human IgG1, kappa, V domains shown)
# VH: B3 VH with M35I
# VL: B3 VL with S31G, G96F
# notes: Human IgG1
# B10: TPP-2149 (antibody, human IgG1, kappa, V domains shown)
# VH: B3 VH with M35I
# VL: B3 VL with S31G, N50Q, G96F
# notes: Human IgG1
# B11: ITEM-4 (antibody, V domains shown)
# VH: QVQLQQSGPELVKPGASVKMSCKASGYTFTDFIIAWVKQRTGQGLEWIGEIYPGTGRTYYSEKFRGKATLTADKSSNTAYMQLSSLTSVDSAVYFCARRTIYYDYDGDYWGQGTTLTVSS
# VL: DIVMTQAAFSNPVTLGTSASISCRSSKSLLHSNGITYLYWYLQKPGQSPQLLIYQMSNLASGVPDRFSSSGSGTDFTLRISRVEAEDVGVYYCAHNLELPWTFGGGTKLELK
# Tests used:
# [1] = biological target: TPP-1989 (hTNFRSF12Aaa28-80-H60K-hIgG1-Fc) (human); assay: ELISA, TWEAKR-Fc coated 62 ng/ml, biotin-IgG titrated; + means IC50 1 to 150 pM;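 note: biotinylated IgG binding to immobilized TWEAKR-Fc muteins, detected with Streptavidin-HRP and Amplex Red, IC50 derived from fitted dose-response curves of twofold serial dilutions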
# Experimental: (§1) To collect dose-response data, the different TWEAKR-Fc muteins were coated with a low concentration (62 ng/ml) in a 384-well Maxisorb ELISA plate and a serial 2fold dilution of biotinylated IgG starting with a concentration of 100 nM was used as soluble binding partner. Detection was done with Streptavidin-HRP and Amplex Red.
# (§2) The dose-response data were fitted and IC50s determined.
# [2] = biological target: TPP-1987 (hTNFRSF12Aaa28-80-S40R-hIgG1-Fc) (human); assay: as above
# Experimental: as §1, §2
# [3] = biological target: TPP-1986 (hTNFRSF12Aaa28-80-T33Q-hIgG1-Fc) (human); assay: as above
# Experimental: as §1, §2
# [4] = biological target: TPP-1990 (hTNFRSF12Aaa28-80-L65Q-hIgG1-Fc) (human); assay: as above
# Experimental: as §1, §2
# [5] = biological target: TPP-1988 (hTNFRSF12Aaa28-80-M50A-hIgG1-Fc) (human); assay: as above
# Experimental: as §1, §2
# [6] = biological target: T1, TPP-599 (HUMAN-TNFRSF12Aaa28-80-hIgG1-Fc) (human); assay: as above
# T1 construct: dimeric; also called human TWEAKR Fc; TWEAKR-Fc
# Experimental: as §1, §2
# [7] = biological target: T2, TPP-2305 (hTNFRSF12Aaa28-80) (Human, UniProt Q9NP84 28-80); assay: SPR (Biacore T100), IgG captured, TPP-2305 injected, 1:1 model
# T2 construct: monomeric extracellular domain, bought; also called purified recombinant human TWEAKR protein; soluble monomeric TWEAKR
# Experimental: Binding affinities of anti-TWEAKR antibodies were determined by surface plasmon resonance analysis on a Biacore T100 instrument (GE Healthcare Biacore, Inc.). Antibodies were immobilized onto a CM5 sensor chip through an indirect capturing reagent, anti-human IgG(Fc). […] Anti-TWEAKR antibodies were injected at a concentration of 10 μg/ml at 10 μl/min for 10 sec.
# Sensorgrams were generated after in-line reference cell correction followed by buffer sample subtraction. The dissociation equilibrium constant (KD) was calculated based on the ratio of association (kₒₙ) and dissociation rated (koff) constants, obtained by fitting sensorgrams with a first order 1:1 binding model.
# [8] = biological target: TPP-2683 (hTNFRSF12Aaa28-80-R56P-hIgG1-Fc) (human); assay: ELISA, TWEAKR-Fc coated 62 ng/ml, biotin-IgG titrated; + means IC50 1 to 150 pM;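 note: biotinylated IgG binding to immobilized TWEAKR-Fc muteins, detected with Streptavidin-HRP and Amplex Red, IC50 derived from fitted dose-response curves of twofold serial dilutions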
# Experimental: as §1, §2
# [9] = biological target: T3, TPP-2202 (TWEAKR-ECD-28-80-hIgGFc-His) (human); assay: ELISA, TPP-2202 coated at 1 µg/ml, biotinylated IgG at 0.08 µg/ml (open bar) and 0.3 µg/ml (filled bar), Streptavidin-HRP, Amplex Red
# T3 construct: dimeric; also called TWEAKR-Fc fusion protein; full ectodomain 28-80
# T3 sequence (chain, as listed by the source limits assumed): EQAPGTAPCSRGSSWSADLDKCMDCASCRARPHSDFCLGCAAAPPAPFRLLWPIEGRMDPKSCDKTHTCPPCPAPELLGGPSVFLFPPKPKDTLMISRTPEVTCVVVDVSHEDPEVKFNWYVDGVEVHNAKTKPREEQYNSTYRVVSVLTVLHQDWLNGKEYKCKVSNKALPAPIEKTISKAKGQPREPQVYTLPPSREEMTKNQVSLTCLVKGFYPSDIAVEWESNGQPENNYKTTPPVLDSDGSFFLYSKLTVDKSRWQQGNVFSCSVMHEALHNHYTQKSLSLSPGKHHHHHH
# Experimental: (§3) Detection was done with Streptavidin-HRP and Amplex-Red substrate.
# (§4) To analyze for binding, 1 μg/ml of the respective dimeric TWEAKR-Fc construct were coated and, 0.3 μg/ml and 0.08 μg/ml of biotinylated IgG were used as soluble binding partner. Detection was done with Streptavidin-HRP and Amplex-Red substrate.
# [10] = biological target: T4, TPP-2203 (TWEAKR-ECD-34-68-hIgGFc-His) (human); assay: ELISA, TPP-2203 coated at 1 µg/ml, biotinylated IgG at 0.08 µg/ml (open bar) and 0.3 µg/ml (filled bar), Streptavidin-HRP, Amplex Red
# T4 construct: dimeric; also called TWEAKR(34-68)-Fc fusion protein; truncated ectodomain 34-68
# Experimental: as §3, §4
# [11] = biological target: T5, TWEAKR (TNFRSF12A, FN14), human, on tumor cell lines (human, UniProt Q9NP84 28-129); assay: cell-based or functional assay
# [12] = biological target: T6, TPP-2614 (TweakR-ECD-34-68-hIgGFc-His-D47A) (human); assay: ELISA, IgG coated 1 ug/ml, TWEAKR variant 250 ng/ml, anti-HIS HRP (FIG. 6C)
# T6 construct: also called D47A TWEAKR mutein
# Experimental: Antibodies were coated (1 μg/ml), TWEAKR variant was added at 250 ng/ml, detection via anti-HIS HRP. […] Antibodies were coated (1 μg/ml), TWEAKR variant was added 250 ng/ml, detection via anti-HIS HRP.
# [13] = biological target: T5, TWEAKR (TNFRSF12A, FN14), human, on …; assay: cell-based or functional assay; remark: listed apart in the source
# [14] = biological target: T5, TWEAKR (TNFRSF12A, FN14), human, on …; assay: FACS, SKOV-3 cells, 10 ug/ml
# Experimental: (§5) To determine the binding characteristics of the anti-TWEAKR antibodies on mouse and human cancer cell lines, binding was tested by flow cytometry to a panel of cell lines. […] Cells were suspended at approximately 10⁵ cells/well in FACS buffer (PBS without Ca/Mg, containing 3% FCS, Biochrom). Cells were centrifuged (250 g, 5 min, 4° C.) and supernatant discarded. Cells were resuspended in dilutions of the antibodies of interest (10 μg/ml in 80 μl if not indicated otherwise) in FACS buffer, and incubated on ice for 1 h. […] After incubation for 1 h on ice cells were again washed with cold FACS buffer, resuspended in 1000 FACS buffer and analyzed by flow cytometry using a FACS-Array (BD Biosciences). Results are calculated as Geo Mean of fluorescence detected by the antibody of interest subtracted by background fluorescence as measured by detection with the secondary antibody alone. Values are scored according to the following system: Geo Mean−Geo Mean of secondary antibody alone >10: +, >100: ++, >1000: +++, 10000: ++++, close to category border in ( ).
# [15] = biological target: T5, TWEAKR (TNFRSF12A, FN14), human, on …; assay: FACS, WiDr cells, 10 ug/ml
# Experimental: as §5
# [16] = biological target: T5, TWEAKR (TNFRSF12A, FN14), human, on …; assay: FACS, NCI-H322 cells, 10 ug/ml
# Experimental: as §5
# [17] = biological target: T5, TWEAKR (TNFRSF12A, FN14), human, on …; assay: FACS, HT29 cells, 10 ug/ml
# Experimental: as §5
# [18] = biological target: T5, TWEAKR (TNFRSF12A, FN14), human, on …; assay: FACS, 786-O cells, 10 ug/ml
# Experimental: as §5
# [19] = biological target: T5, TWEAKR (TNFRSF12A, FN14), human, on …; assay: FACS, A375 cells, 10 ug/ml
# Experimental: as §5
# [20] = biological target: T5, TWEAKR (TNFRSF12A, FN14), human, on …; assay: cell-based or functional assay; remark: listed apart in the source
Binder,Kd [7] [nM],koff [7] [s⁻¹],kon [7] [M⁻¹ s⁻¹],"Fold induction of Caspase 3/7, 786-O cells, 100 ug/ml [11] [fold]","Fold induction of Caspase 3/7, HT-29 cells, 100 ug/ml [11] [fold]","Fold induction of Caspase 3/7, NCI-H322 cells, 100 ug/ml [11] [fold]",% binding normalized by wt binding signal [12] [%],further results
B1,1.7,0.0285,1.64e+07,–,–,–,–,binding result [1]: binds; binding result [2]: binds; binding result [3]: binds; binding result [4]: binds; binding result [5]: binds; binding result [6]: binds
B2,0.5,0.00122,2.31e+06,–,–,–,–,binding result [1]: binds; binding result [2]: binds; binding result [3]: binds; binding result [4]: binds; binding result [5]: binds; binding result [6]: binds; binding result [8]: binds; binding result [9]: binds; binding result [10]: binds
B3,–,–,–,1.88,2.53,1.94,< 5,–
B4,206,0.91,4.4e+06,–,–,–,< 5,–
B5,24.5,0.13,5.1e+06,–,–,–,< 5,–
B6,22.1,0.09,4.1e+06,1.43,2.54,–,< 5,"% Inhibition of proliferation, A253 cells, 72h, 100 ug/ml [13]: > 100%; % Inhibition of proliferation, HT-29 cells, 24h, 100 ug/ml [13]: > 100%; GeoMean of Fluorescence minus GeoMean with the secondary antibody only [14]: 2180; GeoMean of Fluorescence minus GeoMean with the secondary antibody only [15]: 1720; GeoMean of Fluorescence minus GeoMean with the secondary antibody only [16]: 160; GeoMean of Fluorescence minus GeoMean with the secondary antibody only [17]: 875; GeoMean of Fluorescence minus GeoMean with the secondary antibody only [18]: 18200; GeoMean of Fluorescence minus GeoMean with the secondary antibody only [19]: 255"
B7,–,–,–,2.22,2.41,2.01,< 5,–
B8,–,–,–,1.76,2.37,1.89,< 5,–
B9,–,–,–,2.11,2.7,1.98,< 5,"IL-8 release from A375 cells at 100 ug/ml, % of the activation by 300 ng/ml TWEAK ligand [20]: 129%"
B10,12.1,0.1,8.4e+06,–,–,–,< 5,–
B11,0.7,–,–,–,–,–,–,–
